Experimental data taken from PMC5589886.

How the values were obtained:
[1] = target: relaxin family peptide receptor-1 (human) (UniProt Q9HBX9)
[2] = target: relaxin family peptide receptor-1 (human) (UniProt Q9HBX9); remark: listed apart in the source
[3] = target: relaxin family peptide receptor-1 (human) (UniProt Q9HBX9); remark: listed apart in the source

Chain of UniProt Q9HBX9 (Q9HBX9 whole entry): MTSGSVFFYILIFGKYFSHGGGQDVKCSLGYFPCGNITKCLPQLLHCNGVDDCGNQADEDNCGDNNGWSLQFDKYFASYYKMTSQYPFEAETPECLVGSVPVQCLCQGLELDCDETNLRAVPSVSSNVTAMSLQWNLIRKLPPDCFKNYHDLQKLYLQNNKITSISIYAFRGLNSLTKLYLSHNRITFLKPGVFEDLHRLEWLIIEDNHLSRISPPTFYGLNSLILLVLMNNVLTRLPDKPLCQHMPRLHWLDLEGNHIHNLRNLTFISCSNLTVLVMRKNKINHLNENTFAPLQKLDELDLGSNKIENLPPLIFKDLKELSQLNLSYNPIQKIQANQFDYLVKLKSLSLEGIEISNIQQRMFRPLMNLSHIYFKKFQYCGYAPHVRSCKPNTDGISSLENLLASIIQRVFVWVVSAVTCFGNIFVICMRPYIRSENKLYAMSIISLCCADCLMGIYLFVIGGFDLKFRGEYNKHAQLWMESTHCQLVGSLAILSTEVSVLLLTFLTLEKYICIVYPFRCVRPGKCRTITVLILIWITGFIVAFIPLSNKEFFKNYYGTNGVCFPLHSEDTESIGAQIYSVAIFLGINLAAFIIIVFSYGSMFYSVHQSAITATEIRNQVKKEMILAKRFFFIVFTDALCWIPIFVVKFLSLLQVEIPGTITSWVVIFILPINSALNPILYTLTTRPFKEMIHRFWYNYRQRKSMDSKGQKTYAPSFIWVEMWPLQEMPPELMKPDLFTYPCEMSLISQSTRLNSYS

cAMP response, representative H2-RLX dose response in LX-2 cells (endogenous RXFP1), pEC50 [1]: 8.8 pEC50
cAMP response, representative H2-RLX dose response in hHSCs (endogenous RXFP1), pEC50 [1]: 9.3 pEC50
cAMP response of LX-2 cells (endogenous RXFP1) to 60 min H2-RLX after 40 h culture on plastic, mean pEC50 (n = 7) [2]: 9.1 pEC50
cAMP response of primary hHSCs (endogenous RXFP1) to 60 min H2-RLX after 40 h culture, mean pEC50 across three patient samples [2]: 9 pEC50
cAMP generation (TR-FRET Lance cAMP immunoassay), mean pEC50 of H2-RLX in HEK293 cells transduced with RXFP1 BacMam at 0.5%, 5% and 10% v/v (pEC50 9.7, 10.2 and 11.3) [3]: 11.3 pEC50
Substance: human relaxin-2 (ligand)
